{"source": "paper PMC11060673", "biological_target": "His-LHP1 (recombinant Prunus mume Like Heterochromatin Protein 1) (Prunus mume (Japanese apricot))", "experiment": "SPR; BIAcore X-100; PmLHP1 immobilized on a CM5 sensor chip by amine coupling; target protein diluted in a gradient; steady-state affinity model", "data": [{"substance": "Gst-AGL24 (recombinant Prunus mume AGAMOUS-like 24) (natural protein)", "values": [{"measurement": "Kd", "value": 20.6, "unit": "µM"}]}]}
